The target of the assay is AAVGo.1 virus-like particles (goat adeno-associated virus capsid, without DNA genome) (goat adeno-associated virus AAVGo.1). The assay is described as follows: ELISA; direct ELISA in duplicate; AAV VLPs (2.5 ug/mL) coated on plates in 100 mM NaHCO3 pH 9.6, washed with TBST; N-terminally His-tagged AAVR fragment added, detected with anti-6x His HRP antibody; OD 450 nm; EC50 by nonlinear regression (avidity). (ELISA stands for enzyme-linked immunosorbent assay.)

On to “His6PKD1, fragment of human AAV receptor (AAVR) with PKD domain 1 (domain or fragment)”, for which the fold stronger binding avidity than AAV5 came out at 3 fold.

In turn, “His6PKD12, fragment of human AAV receptor (AAVR) with PKD domains 1 and 2 (domain or fragment)” showed a fold stronger binding avidity than AAV5 of 2 fold.

Values taken from article PMC9769368.
